Results from the RNAGym collection of RNA variant scans (doi:10.7554/elife.80360).

B1: Hairpin Ribozyme (parent)
chain: GUCCUCUUUCACGUGCGCGUGAAAGAGAGAAGUGAACCAGAGAAACACACGUUGUGGUAUAUUACCUGGUA

Variants of: B1
Assay: self-cleavage, relative activity (ratio to wild type); higher = more cleavage; co-transcriptional

Variant | self-cleavage
GUCCUCUUCCACGUGCGCGUGAAAGAGAGAAGUGAACCAGAGAAAUACACGUUGUGGUAUAUUACCUGGUA [U9C C46U] | 0.0512
GUCCUCUUCCACGUGCGCGUGAAAGAGAGAAGUGAACCAUAGAAACACACGUUGUGGUAUAUUACCUGGUA [U9C G40U] | 0.169
GUCCUCUUCCACGUGCGCGUGAAAGAGAGAAGUGAACCACAGAAACACACGUUGUGGUAUAUUACCUGGUA [U9C G40C] | 0.136
GUCCUCUUGCACGUGCGCGUGUAAGAGAGAAGUGAACCAGAGAAACACACGUUGUGGUAUAUUACCUGGUA [U9G A22U] | 0.564
GUCCUCUUGCACGUGCGCGUGCAAGAGAGAAGUGAACCAGAGAAACACACGUUGUGGUAUAUUACCUGGUA [U9G A22C] | 0.677
GUCCUCUUCCACGUGCGCGUGAAAGAGAGAAGUAAACCAGAGAAACACACGUUGUGGUAUAUUACCUGGUA [U9C G34A] | 0.812
GUCCUCUUCCACGUGCGCGUGAAAGAGAGAAGUCAACCAGAGAAACACACGUUGUGGUAUAUUACCUGGUA [U9C G34C] | 1.3
GUCCUCUUCCACGUGCGCGUGAAAGAGAGAAGUGAACCAGAGAAACACACGUUGUAGUAUAUUACCUGGUA [U9C G56A] | 0.171
GUCCUCUUCCACGUGCGCGUGAAAGAGAGAAGUGAACCAGAGAAACACACGUUGUGGUAUAUUACUUGGUA [U9C C66U] | 0.513
GUCCUCUUCCACGUGCGCGUGAAAGAGAGAAGUGAACCAGAGAAACACACGUUGUGGUAUAUUACAUGGUA [U9C C66A] | 0.248
GUCCUCUUCCACGUGCGCGUGAAAGAGAGAAGUGAACCAGACAAACACACGUUGUGGUAUAUUACCUGGUA [U9C G42C] | 0.264
GUCCUCUUCCACGUGCGCGUGAAAGAGAGAAGUGAACCAGAGAAACAAACGUUGUGGUAUAUUACCUGGUA [U9C C48A] | 0.0859
GUCCUCUUCCACGUGCGCGUGAAAGAGAAAAGUGAACCAGAGAAACACACGUUGUGGUAUAUUACCUGGUA [U9C G29A] | 0.118
GUCCUCUUCCACGUGCGCGUGAAAGAGAGAAGUGAACCAGAGAAACACACGAUGUGGUAUAUUACCUGGUA [U9C U52A] | 0.895
GUCCUCUUCCACGUGCGCGUGAAAGAGAGAAGUGAACCAGAGAAACACACUUUGUGGUAUAUUACCUGGUA [U9C G51U] | 0.463
GUCCUCUUCCACGUGCGCGUGAAAGAGAGAAGUGAACCAGAGAAACACAAGUUGUGGUAUAUUACCUGGUA [U9C C50A] | 0.215
GUCCUCUUCCACGUGCGCGUGAAAGAGAGAAGUGAACCAGAGAAACACACGUUGUGGUAUAUUACCUGGCA [U9C U70C] | 0.492
GUCCUCUUCCACGUGCGCGUGAAAGAGAGAAGUGAACCAGAGAAACACACGUUGUGGUAUAUUACCUAGUA [U9C G68A] | 0.344
GUCCUCUUCCACGUGCGCGUGAAAGAGAGAAGUGAACCAGAGAAACACACGUUGUGGUAUAUGACCUGGUA [U9C U63G] | 0.169

Variant | self-cleavage
GUCCUCUUCCACGUGCGCGUGAAAGAGAGAAGUGAACCAGAGAAACACACGUUGUGGUAUAAUACCUGGUA [U9C U62A] | 0.238
GUCCUCUUGCGCGUGCGCGUGAAAGAGAGAAGUGAACCAGAGAAACACACGUUGUGGUAUAUUACCUGGUA [U9G A11G] | 0.551
GUCCUCUUCCACGUGCGCGUGAAAGAGAGAAGUGAACCAGAGAAACACACGUUGUGGUACAUUACCUGGUA [U9C U60C] | 0.981
GUCCUCUUCCACGUGCGCGUGAAAGAGAGAAGUGAACCAGAGAAACACACGUUGUGGUAUAUUACCUGCUA [U9C G69C] | 0.136
GUCCUCUUCCACGUGCGCGUGAAAGAGAGAAGUGAACCAGAGAAACACACGUUGUGGUAUAUUACCUGAUA [U9C G69A] | 0.357
GUCCUCUUGCACGUGCGCGUGAAAGAGAGAAGUGAACCAGAGAAACACACGUUGUGGUAUAUUACCUGGUA [U9G] | 0.701
GUCCUCUUCCACGUGCGCGUGAAAGAGAGAAGUGAACCAGAGAAACACACGUCGUGGUAUAUUACCUGGUA [U9C U53C] | 0.741
GUCCUCUUCCACGUGCGCGUGAAAGAGAGAAGUGAACCAGAGAAACACACGUGGUGGUAUAUUACCUGGUA [U9C U53G] | 1.13
GUCCUCUUCCACCUGCGCGUGAAAGAGAGAAGUGAACCAGAGAAACACACGUUGUGGUAUAUUACCUGGUA [U9C G13C] | 0.447
GUCCUCUUCCACAUGCGCGUGAAAGAGAGAAGUGAACCAGAGAAACACACGUUGUGGUAUAUUACCUGGUA [U9C G13A] | 0.531
GUCCUCUUCCACGUGCGCGGGAAAGAGAGAAGUGAACCAGAGAAACACACGUUGUGGUAUAUUACCUGGUA [U9C U20G] | 0.503
GUCCUCUUCCACGUGCGCGUGAAAGAUAGAAGUGAACCAGAGAAACACACGUUGUGGUAUAUUACCUGGUA [U9C G27U] | 0.246
GUCCUCUUCCACGUGCGCGUGAAAGAAAGAAGUGAACCAGAGAAACACACGUUGUGGUAUAUUACCUGGUA [U9C G27A] | 0.4
GUCCUCUUCCACGGGCGCGUGAAAGAGAGAAGUGAACCAGAGAAACACACGUUGUGGUAUAUUACCUGGUA [U9C U14G] | 0.754
GUCCUCUUCCACGUGCGCGUGAAAGAGAGAAGUGAACCAGAGAAACACACGUUGUGGAAUAUUACCUGGUA [U9C U58A] | 0.559
GUCCUCUUCCACGUGCGCGUUAAAGAGAGAAGUGAACCAGAGAAACACACGUUGUGGUAUAUUACCUGGUA [U9C G21U] | 0.695
GUCCUCUUCCACGUCCGCGUGAAAGAGAGAAGUGAACCAGAGAAACACACGUUGUGGUAUAUUACCUGGUA [U9C G15C] | 0.977
GUCCUCUUCCACGUACGCGUGAAAGAGAGAAGUGAACCAGAGAAACACACGUUGUGGUAUAUUACCUGGUA [U9C G15A] | 0.76
GUCCUCUUCCACGUGCGCGUGAAAGAGAGAAGUGAACCAGAGAAACACACGUUGUGAUAUAUUACCUGGUA [U9C G57A] | 0.167
